Assay results as given in PMC7826282.

Target: 3xFLAG-FL-NOPCHAP1 (human) (UniProt Q8N5I9)
Test: co-IP

Chain of 3xFLAG-FL-NOPCHAP1 (human) (Q8N5I9 whole entry): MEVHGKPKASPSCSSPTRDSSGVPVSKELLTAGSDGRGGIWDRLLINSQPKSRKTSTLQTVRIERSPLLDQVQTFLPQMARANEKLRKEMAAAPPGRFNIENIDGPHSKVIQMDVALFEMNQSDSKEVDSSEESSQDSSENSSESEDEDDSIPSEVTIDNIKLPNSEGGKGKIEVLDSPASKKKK
Chain of RL-NOP56-WT (O00567 whole entry): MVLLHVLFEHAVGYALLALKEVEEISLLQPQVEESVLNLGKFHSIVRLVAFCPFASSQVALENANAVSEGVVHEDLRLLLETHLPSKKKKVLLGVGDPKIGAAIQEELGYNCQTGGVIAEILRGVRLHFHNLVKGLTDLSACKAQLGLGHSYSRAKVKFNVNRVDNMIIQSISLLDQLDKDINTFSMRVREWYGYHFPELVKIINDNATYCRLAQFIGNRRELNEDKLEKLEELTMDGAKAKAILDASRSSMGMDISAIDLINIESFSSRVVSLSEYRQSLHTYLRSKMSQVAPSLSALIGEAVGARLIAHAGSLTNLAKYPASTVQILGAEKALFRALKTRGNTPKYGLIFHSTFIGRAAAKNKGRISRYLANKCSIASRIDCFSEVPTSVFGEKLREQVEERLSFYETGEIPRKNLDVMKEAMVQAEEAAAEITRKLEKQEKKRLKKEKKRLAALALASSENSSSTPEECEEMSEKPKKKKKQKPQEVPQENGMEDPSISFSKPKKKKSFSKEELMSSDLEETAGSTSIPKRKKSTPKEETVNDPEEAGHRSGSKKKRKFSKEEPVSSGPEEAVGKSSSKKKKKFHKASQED

co-IP efficiency: < 0.05%
Substance: RL-NOP56-WT (from UniProt O00567 1-594) (natural protein)
